# From patent US20240317834A1, “COMPOSITIONS AND METHODS FOR NEUROLOGICAL DISEASES” (CODA BIOTHERAPEUTICS, INC., priority 2020, published 2024)
# B1: CODA805: engineered chimeric LGIC receptor, Y115D, S170T in SEQ ID NO: 33 (protein)
# chain: MRCSPGGVWLALAASLLHVSLQGEFQRKLYKELVKNYNPLERPVANDSQPLTVYFSLSLLQIMDVDEKNQVLTTNIWLQMSWTDHYLQWNVSEYPGVKTVRFPDGQIWKPDILLDNSADERFDATFHTNVLVNSSGHCQYLPPGIFKSSCPMDLKNFPMDVQTCKLKFGTWSYGGWSLDLQMQEADISGYIPNGEWDLVGIPGKRSERFYECCKEPYPDVTFTVTMRRRMGYYLIQMYIPSLLIVILSWISFWINMDAAPARVGLGITTVLTMTTQSSGSRASLPKVSYVKAIDIWMAVCLLFVFSALLEYAAVNFVSRQHKELLRFRRKRRHHKSPMLNLFQEDEAGEGRFNFSAYGMGPACLQAKDGISVKGANNSNTTNPPPAPSKSPEEMRKLFIQRAKKIDKISRIGFPMAFLIFNMFYWIIYKIVRREDVHNQ
# modifications: synthetic sequence of chimeric LGIC
# Test system: Lenti-X 293T cells
# Test: YFP fluorescence quenching anion reporter plate reader assay of engineered receptors stimulated with acetylcholine or a non-native ligand
# Assay type: cell-based
# Outline: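 Lenti-X 293T cells carrying a YFP anion reporter were transiently transfected with channel DNA and assayed the next day in HEPES-buffered ECS at pH 7.2. Ligand (acetylcholine or non-native ligand) was added in NaI-substituted ECS. Percent quench was the mean of the last 10 s relative to the 15 s pre-addition baseline.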
molecule,measurement,setting,value
B1,YFP fluorescence quenching using CNL001,"1 nM CNL001, first column",−10.729%
same,YFP fluorescence quenching using CNL001,"1 nM CNL001, second column",−15.278%
same,YFP fluorescence quenching using TC-5619/Bradanicline,1 nM brd,−9.78%
same,YFP fluorescence quenching using TC-5619/Bradanicline,3 nM brd,−12.06%
same,YFP fluorescence quenching using CNL001,"10 nM CNL001, first column",−20.403%
same,YFP fluorescence quenching using CNL001,"10 nM CNL001, second column",−14.905%
same,YFP fluorescence quenching using TC-5619/Bradanicline,10 nM brd,−9.02%
same,YFP fluorescence quenching using TC-5619/Bradanicline,30 nM brd,−16.3%
same,YFP fluorescence quenching using Facinicline,30 nM fac,38.08
same,YFP fluorescence quenching using CNL001,"50 nM CNL001, first column",−14.303%
same,YFP fluorescence quenching using CNL001,"50 nM CNL001, second column",−15.741%
same,YFP fluorescence quenching using ABT-126,50 nM abt,−11.83%
same,YFP fluorescence quenching using CNL001,"100 nM CNL001, first column",−12.637%
same,YFP fluorescence quenching using CNL001,"100 nM CNL001, second column",−10.606%
same,YFP fluorescence quenching using CNL002,100 nM CNL002,−18.17%
same,YFP fluorescence quenching using ABT-126,100 nM abt,−11.5%
same,YFP fluorescence quenching using AZD-0328,100 nM azd0328,−0.71%
same,YFP fluorescence quenching using TC-5619/Bradanicline,100 nM brd,−7.44%
same,YFP fluorescence quenching using Facinicline,100 nM fac,−14.37
same,YFP fluorescence quenching using ABT-126,300 nM abt,−8.01%
same,YFP fluorescence quenching using AZD-0328,300 nM azd0328,−1.73%
same,YFP fluorescence quenching using TC-5619/Bradanicline,300 nM brd,−10.93%
same,YFP fluorescence quenching using Facinicline,300 nM fac,19.41
same,YFP fluorescence quenching using CNL001,"1 uM CNL001, first column",−13.535%
same,YFP fluorescence quenching using CNL001,"1 uM CNL001, second column",−11.335%
same,YFP fluorescence quenching using CNL002,1 uM CNL002,−15.2%
same,YFP fluorescence quenching using ABT-126,1 uM abt,−9.34%
same,YFP fluorescence quenching using TC-5619/Bradanicline,1 uM brd,−4.55%
same,YFP fluorescence quenching using TC-6987,1 uM tc6987,31.9
same,YFP fluorescence quenching using Facinicline,10 uM fac,67.33
same,YFP fluorescence quenching using TC-6987,10 uM tc6987,25.54
same,YFP fluorescence quenching using CNL002,30 uM CNL002,−14%
same,YFP fluorescence quenching using AZD-0328,30 uM azd0328,47.39%
same,YFP fluorescence quenching using Facinicline,30 uM fac,79.67
same,YFP fluorescence quenching using TC-6987,500 uM tc6987,21.13
same,"percent quench of YFP fluorescence, 10 uM ach",acetylcholine 10 uM,−0.46%
same,"percent quench of YFP fluorescence, 100 uM ach",acetylcholine 100 uM,−4.93%
same,"percent quench of YFP fluorescence, 1 mM ach",acetylcholine 1 mM,−11.18%
same,"percent quench of YFP fluorescence, 3 mM ach",acetylcholine 3 mM,−3.53%
